Assay results taken from publication PMC3637252, “Structural Basis of the Induced-Fit Mechanism of 1,4-Dihydroxy-2-Naphthoyl Coenzyme A Synthase from the Crotonase Fold Superfamily” (PLoS ONE, 2013).
Numbering of substitutions follows the chain as printed. Numbers in names are those of the source.

T1: scMenB (Synechocystis sp. PCC 6803, UniProt P73495)
T1 construct: gene menB; recombinant, purified to homogeneity; homohexamer
T1 sequence (P73495 1-275): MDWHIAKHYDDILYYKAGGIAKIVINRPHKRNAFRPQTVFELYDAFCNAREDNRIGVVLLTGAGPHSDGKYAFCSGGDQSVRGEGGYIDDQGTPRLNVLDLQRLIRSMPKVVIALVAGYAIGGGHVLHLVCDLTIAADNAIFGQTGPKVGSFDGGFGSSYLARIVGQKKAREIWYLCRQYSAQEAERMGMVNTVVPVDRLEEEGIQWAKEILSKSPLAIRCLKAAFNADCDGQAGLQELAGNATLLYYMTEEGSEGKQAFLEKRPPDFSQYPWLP

B1: ecMenB (Escherichia coli K-12; F270A) (protein)
chain: MIYPDEAMLYAPVEWHDCSEGFEDIRYEKSTDGIAKITINRPQVRNAFRPLTVKEMIQALADARYDDNIGVIILTGAGDKAFCSGGDQKVRGDYGGYKDDSGVHHLNVLDFQRQIRTCPKPVVAMVAGYSIGGGHVLHMMCDLTIAADNAIFGQTGPKVGSFDGGWGASYMARIVGQKKAREIWFLCRQYDAKQALDMGLVNTVVPLADLEKETVRWCREMLQNSPMALRCLKAALNADCDGQAGLQELAGNATMLFYMTEEGQEGRNAANQKRQPDFSKFKRNP
notes: recombinant; homohexamer, active site formed by two subunits across the trimer-trimer interface
B2: ecMenB (Escherichia coli K-12; R267A) (protein)
chain: B1 chain with R267A, A270F
notes: as for B1
B3: ecMenB (Escherichia coli K-12; K89A) (protein)
chain: B1 chain with K89A, A270F
notes: as for B1
B4: 1,4-dihydroxy-2-naphthoyl coenzyme A (DHNA-CoA) synthase from Escherichia coli (enzyme)
chain: B1 chain with A270F
notes: DHNA-CoA synthase MenB, Escherichia coli; Crystallised with the small-molecule product analog HNA-CoA; also called ecMenB; MenB
B5: 1,4-dihydroxy-2-naphthoyl coenzyme A (DHNA-CoA) synthase from Synechocystis sp. PCC 6803 (enzyme)
chain: T1 sequence (P73495 1-275)
notes: DHNA-CoA synthase MenB, Synechocystis sp; PCC 6803; wild type; Crystallised with the small-molecule product analogs HNA-CoA or SA-CoA; also called scMenB; MenB

What was measured:
[1] = target: T1, scMenB; test: X-ray crystal structure, […] Å; type: binding; conditions: pH 6.0
[2] = target: T1, scMenB; test: X-ray crystal structure, […] Å; type: binding; conditions: co-crystal, pH 5.70; active site, product analog; chloride at the bicarbonate site
[3] = target: T2, ecMenB (Escherichia coli, UniProt P0ABU0); test: X-ray crystal structure, […] Å; type: binding; conditions: co-crystal, pH 5.5; active site, product analog; chloride at the bicarbonate site
T2 construct: gene menB; recombinant; homohexamer, active site formed by two subunits across the trimer-trimer interface
T2 sequence (P0ABU0 whole entry): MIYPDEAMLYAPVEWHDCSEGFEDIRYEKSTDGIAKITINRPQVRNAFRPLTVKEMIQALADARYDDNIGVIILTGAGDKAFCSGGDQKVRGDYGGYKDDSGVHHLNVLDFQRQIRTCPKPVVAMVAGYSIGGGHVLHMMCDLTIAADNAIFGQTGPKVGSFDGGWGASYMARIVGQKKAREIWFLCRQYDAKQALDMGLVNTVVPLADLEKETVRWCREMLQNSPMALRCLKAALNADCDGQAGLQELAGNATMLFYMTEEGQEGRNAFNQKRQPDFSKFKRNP

[4] = substrate: CC(C)(COP(=O)(O)OP(=O)(O)OC[C@H]1O[C@@H](n2cnc3c(N)ncnc32)[C@H](O)[C@@H]1OP(=O)(O)O)[C@@H](O)C(=O)NCCC(=O)NCCSC(=O)CCC(=O)c1ccccc1C(=O)O; test: purified protein; type: biochemical, Escherichia coli; conditions: 200 mM phosphate pH 7.0, 20 mM NaHCO3, OSB-CoA made in situ from SHCHC with MenC and MenE
[5] = target: the molecule itself; test: crystal structure; ecMenB co-crystallised with HNA-CoA; hanging drop, 294 K; 200 mM (NH4)2SO4, 23% PEG 3,350, 100 mM Bis-Tris pH 5.5; protein 10 mg/ml with 10 mM NaHCO3, 10 mM HNA-CoA, 20 mM KCl; 1.84 A
[6] = target: the molecule itself; test: crystal structure; scMenB (5 mg/ml) co-crystallised with 5 mM HNA-CoA; 0.15 M ammonium acetate, 0.3 M ammonium sulfate, 16% PEG 3350, 100 mM Bis-Tris pH 5.70; 2.35 A

Row | Molecule | Km [4] [µM] | kcat [4] [s⁻¹] | kcat/Km [4] [M⁻¹ s⁻¹] | other results
1 | O=C(O)O [bicarbonate] |  |  |  | X-ray crystal structure, 2.00 Å ([1]; ternary complex with SA-CoA, bicarbonate site): a bicarbonate ion is found in the place of the chloride ion
2 | CC(C)(COP(=O)(O)OP(=O)(O)OC[C@H]1O[C@@H](n2cnc3c(N)ncnc32)[C@H](O)[C@@H]1OP(=O)(O)O)[C@@H](O)C(=O)NCCC(=O)NCCSC(=O)c1ccc2ccccc2c1O [1-hydroxy-2-naphthoyl-CoA] |  |  |  | X-ray crystal structure, 2.35 Å [2]: structures of the yellowish scMenB: HNA-CoA and colorless scMenB: SA-CoA crystals were also solved; X-ray crystal structure, 1.84 Å [3]: The ecMenB:HNA-CoA complex structure was solved by molecular replacement
3 | CC(C)(COP(=O)(O)OP(=O)(O)OC[C@H]1O[C@@H](n2cnc3c(N)ncnc32)[C@H](O)[C@@H]1OP(=O)(O)O)[C@@H](O)C(=O)NCCC(=O)NCCSC(=O)c1ccccc1O [salicyloyl-CoA] |  |  |  | X-ray crystal structure, 2.00 Å ([1]; co-crystal, active site, product analog, bicarbonate bound): structures of the yellowish scMenB: HNA-CoA and colorless scMenB: SA-CoA crystals were also solved
4 | B1 | 19.7 ± 3.9 | 0.0035 ± 0.000167 | 180 ± 10 | 
5 | B2 | 16.6 ± 1.0 | 0.00267 ± 0.000167 | 160 ± 20 | 
6 | B3 | 43.3 ± 2.0 | 0.0383 ± 0.00133 | 890 ± 30 | 
7 | B4 |  |  |  | stoichiometry N [5]: 6
8 | B5 |  |  |  | stoichiometry N [6]: 6
